# Assay results: patent US20250145973, “CONDITIONED DNA MODIFYING ENZYME COMPRISING HETEROLOGOUS DNA BINDING DOMAIN” (Technische Universität Dresden Körperschaft des …, published 2025)
# B1: loxBTR-5-zif (A) (dsDNA)
# DNA 1: AGCGTGGGCGTACTGAACCCACTGCTTAAGCCTCAATAAAGCTTGCCTTCAGTACGCCCACGCT
# DNA 2: AGCGTGGGCGTACTGAAGGCAAGCTTTATTGAGGCTTAAGCAGTGGGTTCAGTACGCCCACGCT
# Target: Brec1-Zif268 (aa278) Rmut (synthetic)
# Assay: cell_activity; 100 ug/ml L-arabinose, E. coli
# Conditions: tags: G-to-R in right linker
# Brec1-Zif268 (aa278) Rmut (synthetic), sequence (chain, as listed by the source): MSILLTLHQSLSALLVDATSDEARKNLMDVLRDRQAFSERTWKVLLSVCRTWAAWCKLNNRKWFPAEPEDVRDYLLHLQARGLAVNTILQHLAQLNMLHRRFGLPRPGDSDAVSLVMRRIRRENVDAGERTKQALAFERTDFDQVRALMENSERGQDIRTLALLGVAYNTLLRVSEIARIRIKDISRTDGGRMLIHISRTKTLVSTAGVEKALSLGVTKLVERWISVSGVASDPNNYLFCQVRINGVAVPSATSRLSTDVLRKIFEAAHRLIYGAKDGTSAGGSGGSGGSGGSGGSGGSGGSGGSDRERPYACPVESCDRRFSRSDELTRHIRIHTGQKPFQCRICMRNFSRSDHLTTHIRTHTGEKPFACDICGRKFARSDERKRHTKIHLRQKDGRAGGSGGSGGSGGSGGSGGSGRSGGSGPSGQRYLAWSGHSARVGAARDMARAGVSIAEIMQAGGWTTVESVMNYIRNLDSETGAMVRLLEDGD
binder,measurement,value
B1,binding signal,2.5 fold vs Brec1-Zif268
